Source: patent publication US20030021776, “Regulation of angiogenesis with zinc finger proteins” (Sangamo BioSciences, Inc., published 2003)

What was measured:
VOP 28A-2 = VOP 28A-2 (synthetic); assay: EMSA; details: tags: MBP fusion (pMal-c2), SP1 backbone
PDF 5A (VZ+590) = molecular target: T1, PDF 5A (VZ+590) (synthetic); assay: EMSA; 170 mM KCl, 1.7 mM MgCl2, Zn; details: tags: MBP fusion (pMal-c2), SP1 backbone
T1 chain: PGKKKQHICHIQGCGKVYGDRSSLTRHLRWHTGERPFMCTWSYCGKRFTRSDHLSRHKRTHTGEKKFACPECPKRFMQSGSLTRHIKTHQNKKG
Procedure: (§1) Binding studies were performed essentially as described (Zhang et al., supra; WO 00/41566; and WO 00/42219) except that the binding reactions contained 10 pM of labeled target site and the buffer composition was as follows: 17 mM Tris, 170 mM KCl, 1.7 mM MgCl2, 3.5 mM DTT, 0.01-0.033 mM ZnCl2, 15% glycerol, 300 μg/ml bovine serum albumin, 0.03% IGEPAL. In addition, ZFP concentrations for these studies were determined directly by measuring the DNA-binding activity of each ZFP preparation using conditions under which binding is essentially stoichiometric (ZFP and target site concentrations of >100 nM).

MTS 5A = MTS 5A (synthetic, UniProt P08047); assay: EMSA; details: tags: MBP fusion (pMal-c2), SP1 backbone
Sequence of MTS 5A (P08047 other isoform, or with tags, fused parts or gaps): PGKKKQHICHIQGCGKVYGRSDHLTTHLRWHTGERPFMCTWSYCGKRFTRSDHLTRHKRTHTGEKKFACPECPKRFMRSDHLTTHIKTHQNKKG

VEGF 1 (VZ-8) = molecular target: T2, VEGF 1 (VZ-8) (synthetic, UniProt P08047); assay: EMSA; 170 mM KCl, 1.7 mM MgCl2, Zn; details: tags: MBP fusion (pMal-c2), SP1 backbone
T2 chain: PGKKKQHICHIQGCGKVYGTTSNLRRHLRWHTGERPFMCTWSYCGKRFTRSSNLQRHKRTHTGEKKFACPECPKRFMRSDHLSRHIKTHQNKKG
Procedure: as §1

[1] = molecular target: T3, VOP 32B-7 (VZ+434b, mVZ+426) (synthetic); assay: EMSA; details: tags: MBP fusion (pMal-c2), SP1 backbone
T3 chain: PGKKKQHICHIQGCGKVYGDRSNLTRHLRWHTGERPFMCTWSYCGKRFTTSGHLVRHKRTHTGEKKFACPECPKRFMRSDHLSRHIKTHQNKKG

VOP 32A-6 (VZ+434a) = molecular target: T4, VOP 32A-6 (VZ+434a) (synthetic); assay: EMSA; details: tags: MBP fusion (pMal-c2), SP1 backbone
T4 chain: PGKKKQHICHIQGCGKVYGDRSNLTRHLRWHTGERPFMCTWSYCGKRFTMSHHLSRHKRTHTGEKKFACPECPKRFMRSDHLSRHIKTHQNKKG

[2] = molecular target: T5, VOP 32B-VP16 (VZ+434b-VP16) (synthetic); assay: cell_activity; endogenous VEGF-A in HEK 293
T5 chain: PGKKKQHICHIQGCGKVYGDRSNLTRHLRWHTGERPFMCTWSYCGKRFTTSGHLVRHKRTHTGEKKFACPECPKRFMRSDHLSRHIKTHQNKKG

BVO 13A = molecular target: T6, BVO 13A (synthetic); assay: EMSA; details: tags: MBP fusion (pMal-c2), SP1 backbone
T6 chain: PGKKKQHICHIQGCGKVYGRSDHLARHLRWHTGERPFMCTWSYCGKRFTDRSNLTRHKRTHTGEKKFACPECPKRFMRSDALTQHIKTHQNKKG

MX1E = molecular target: T7, MX1E (synthetic); assay: EMSA; details: tags: MBP fusion (pMal-c2), SP1 backbone
T7 chain: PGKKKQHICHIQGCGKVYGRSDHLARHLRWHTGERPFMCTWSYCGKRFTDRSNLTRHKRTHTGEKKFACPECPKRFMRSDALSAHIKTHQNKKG

HUM 17A (VZ+472) = molecular target: T8, HUM 17A (VZ+472) (synthetic); assay: EMSA; 17 mM Tris, 170 mM KCl, 1.7 mM MgCl2, Zn; details: tags: MBP fusion (pMal-c2), SP1 backbone
T8 chain: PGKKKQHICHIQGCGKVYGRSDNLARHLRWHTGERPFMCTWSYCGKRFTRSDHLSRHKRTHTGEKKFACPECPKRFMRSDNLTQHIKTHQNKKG
Procedure: as §1

SP1 zinc finger domain [3] = molecular target: T9, SP1 zinc finger domain (UniProt P08047 SEQ:1-94); assay: EMSA; 100 mM KCl, 1 mM MgCl2, Zn
T9 sequence (P08047 620-713): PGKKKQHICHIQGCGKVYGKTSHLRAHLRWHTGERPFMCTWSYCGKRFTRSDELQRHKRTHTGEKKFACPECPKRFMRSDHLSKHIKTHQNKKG
Procedure: (§2) Binding studies. Binding studies were performed essentially as described (Liu, et al. (2001) J. Biol. Chem. 276: 11,323-11,334), except that the buffer was modified to the following final composition: 10 mM Tris, 100 mM KCl, 1 mM MgCl₂, 10 mM DTT, 0.01 mM ZnCl₂, 10% glycerol, 200 μg/ml bovine serum albumin, 0.02% IGEPAL.
(§3) Genes for our ZFPs were assembled (see experimental procedures) and each protein was expressed and purified essentially as described (Liu et. al., 2001, supra; and Zhang et. al., supra). We then characterized the DNA-binding affinity of each ZFP using a gel shift assay. Procedures for these studies were essentially identical to those described previously (Liu et. al., 2001, supra; and Zhang et. al., supra) except for the use of a modified binding buffer.

SP1 zinc finger domain [4] = molecular target: T9, SP1 zinc finger domain; assay: EMSA; 170 mM KCl, 1.7 mM MgCl2, Zn
Procedure: as §1

[5] = molecular target: VOP 30A-4 (VZ+42/+530, mVZ+509) (synthetic); assay: EMSA; details: tags: MBP fusion (pMal-c2), SP1 backbone
Sequence of VOP 30A-4 (VZ+42/+530, mVZ+509) (synthetic) (chain, as listed by the source): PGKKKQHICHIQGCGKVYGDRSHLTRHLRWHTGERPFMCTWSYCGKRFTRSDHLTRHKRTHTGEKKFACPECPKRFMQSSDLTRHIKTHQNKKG

USX 3A = USX 3A (synthetic); assay: EMSA; details: tags: MBP fusion (pMal-c2), SP1 backbone
VOP 35A-10 (VZ+892) [6] = molecular target: VOP 35A-10 (VZ+892) (synthetic); assay: EMSA; 170 mM KCl, 1.7 mM MgCl2, Zn; details: tags: MBP fusion (pMal-c2), SP1 backbone
Sequence of VOP 35A-10 (VZ+892) (synthetic) (chain, as listed by the source): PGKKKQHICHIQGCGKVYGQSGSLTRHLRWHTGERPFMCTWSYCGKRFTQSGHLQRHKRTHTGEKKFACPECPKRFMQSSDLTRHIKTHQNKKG
Procedure: as §1

VZ-950 = molecular target: T10, VZ-950 (synthetic); assay: EMSA; 170 mM KCl, 1.7 mM MgCl2, Zn; details: tags: MBP fusion (pMal-c2), SP1 backbone
T10 chain: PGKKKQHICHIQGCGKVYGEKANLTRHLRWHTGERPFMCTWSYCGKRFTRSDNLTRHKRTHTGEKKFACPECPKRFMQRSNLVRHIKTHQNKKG
Procedure: as §1

VOP 29A-3 = molecular target: T11, VOP 29A-3 (synthetic); assay: EMSA; details: tags: MBP fusion (pMal-c2), SP1 backbone
T11 chain: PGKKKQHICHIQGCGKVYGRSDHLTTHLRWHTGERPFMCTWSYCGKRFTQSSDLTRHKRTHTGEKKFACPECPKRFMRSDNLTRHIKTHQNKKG

VG 8A (VZ-475) = VG 8A (VZ-475) (synthetic); assay: EMSA; 170 mM KCl, 1.7 mM MgCl2, Zn; details: tags: MBP fusion (pMal-c2), SP1 backbone
Sequence of VG 8A (VZ-475) (synthetic) (chain, as listed by the source): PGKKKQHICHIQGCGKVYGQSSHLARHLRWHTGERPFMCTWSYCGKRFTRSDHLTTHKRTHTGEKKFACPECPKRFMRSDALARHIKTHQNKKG
Procedure: as §1

VOP 35A-10 (VZ+892) [7] = molecular target: VOP 35A-10 (VZ+892) (synthetic); assay: EMSA; Table 6 gives 0.24 nM for same helices (VZ+892); details: tags: MBP fusion (pMal-c2), SP1 backbone
[8] = molecular target: VOP 30A-4 (VZ+42/+530, mVZ+509) (synthetic); assay: EMSA; upper bound; 10 mM Tris, 100 mM KCl, 1 mM MgCl2, 0.01 mM ZnCl2; details: tags: MBP fusion (pMal-c2), SP1 backbone
Procedure: (§4) A three-fold dilution series of each protein was tested for binding to its DNA target (SEQ ID NOS:207, 144, 240, and 141, respectively), with the highest concentration in lane 10 and the lowest concentration in lane 2. Lane 1 contains probe alone.
as §2, §3

VEGF 1B = VEGF 1B (synthetic, UniProt P08047); assay: EMSA; details: tags: MBP fusion (pMal-c2), SP1 backbone
Sequence of VEGF 1B (P08047 other isoform, or with tags, fused parts or gaps): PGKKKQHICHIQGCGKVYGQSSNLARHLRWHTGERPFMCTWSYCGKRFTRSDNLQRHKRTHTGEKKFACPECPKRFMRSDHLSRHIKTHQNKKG

ZEN-7A 1 (VZ-573) = ZEN-7A 1 (VZ-573) (synthetic, UniProt P08047); assay: EMSA; 170 mM KCl, 1.7 mM MgCl2, Zn; details: tags: MBP fusion (pMal-c2), SP1 backbone
Sequence of ZEN-7A 1 (VZ-573) (P08047 other isoform, or with tags, fused parts or gaps): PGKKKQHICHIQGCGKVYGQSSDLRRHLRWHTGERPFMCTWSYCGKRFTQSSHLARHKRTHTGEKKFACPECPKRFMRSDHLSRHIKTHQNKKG
Procedure: as §1

[9] = molecular target: T3, VOP 32B-7 (VZ+434b, mVZ+426); assay: EMSA; upper bound; 10 mM Tris, 100 mM KCl, 1 mM MgCl2, 0.01 mM ZnCl2; details: tags: MBP fusion (pMal-c2), SP1 backbone
Procedure: as §4, §2, §3

[10] = molecular target: T3, VOP 32B-7 (VZ+434b, mVZ+426); assay: EMSA; 170 mM KCl, 1.7 mM MgCl2, Zn; details: tags: MBP fusion (pMal-c2), SP1 backbone
Procedure: as §1

HUM 19A = molecular target: T12, HUM 19A (synthetic); assay: EMSA; details: tags: MBP fusion (pMal-c2), SP1 backbone
T12 chain: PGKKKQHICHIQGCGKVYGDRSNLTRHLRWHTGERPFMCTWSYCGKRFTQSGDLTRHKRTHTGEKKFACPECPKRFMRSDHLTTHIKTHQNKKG

Sequence of VOP 28A-2 (synthetic) (chain, as listed by the source): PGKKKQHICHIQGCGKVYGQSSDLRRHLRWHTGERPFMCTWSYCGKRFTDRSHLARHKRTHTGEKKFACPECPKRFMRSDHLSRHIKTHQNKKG

B1: VOP 28A-2 target (dsDNA)
DNA 1: GGGGGCGCT
DNA 2: AGCGCCCCC
**Q.** Which Kd (VOP 28A-2) does the source give for B1 here?
**A.** < 0.02 nM

B2: VZ+590 target (dsDNA)
DNA 1: GCAGGGGCCG
DNA 2: CGGCCCCTGC
**Q.** With B2 as the binder, how does the Kd (PDF 5A (VZ+590)) read?
**A.** 0.23 nM

B3: MTS 5A target (dsDNA)
DNA 1: TGGGGGTGG
DNA 2: CCACCCCCA
**Q.** With B3 as the binder, how does the Kd (MTS 5A) read?
**A.** 0.07 nM

B4: VZ-8 target (dsDNA)
DNA 1: GGGGAGGATC
DNA 2: GATCCTCCCC
**Q.** How did the Kd (VEGF 1 (VZ-8)) turn out when B4 was run?
**A.** 2.83 nM

B5: VOP 32A/32B target (dsDNA)
DNA 1: GGGGGTGAC
DNA 2: GTCACCCCC
**Q.** How did the Kd [1] turn out when B5 was run?
**A.** < 0.02 nM

**Q.** What about the Kd (VOP 32A-6 (VZ+434a)) of the same binder?
**A.** < 0.02 nM

**Q.** What about the activity [2] of the same binder?
**A.** 8 fold

B6: BVO 13A / MX1E target (dsDNA)
DNA 1: ATGGACGGG
DNA 2: CCCGTCCAT
**Q.** For B6, which Kd (BVO 13A) is on record?
**A.** < 0.02 nM

**Q.** What about the Kd (MX1E) of the same binder?
**A.** 3.4 nM

B7: VZ+472 target (dsDNA)
DNA 1: AAGGGGGAGG
DNA 2: CCTCCCCCTT
**Q.** With B7 as the binder, how does the Kd (HUM 17A (VZ+472)) read?
**A.** 0.006 nM

B8: SP1 target (dsDNA)
DNA 1: GGGGCGGGGG
DNA 2: CCCCCGCCCC
**Q.** For B8, which Kd (SP1 zinc finger domain [3]) is on record?
**A.** 0.053 nM

**Q.** What about the Kd (SP1 zinc finger domain [4]) of the same binder?
**A.** 0.25 nM

B9: VOP 30A target (dsDNA)
DNA 1: GCTGGGGGC
DNA 2: GCCCCCAGC
**Q.** Which Kd [5] does the source give for B9 here?
**A.** < 0.02 nM

B10: USX 3A target (dsDNA)
DNA 1: GCCGGGGAG
DNA 2: CTCCCCGGC
**Q.** How did the Kd (USX 3A) turn out when B10 was run?
**A.** 0.06 nM

B11: VZ+892 target (dsDNA)
DNA 1: GCTGGAGCAC
DNA 2: GTGCTCCAGC
**Q.** How did the Kd (VOP 35A-10 (VZ+892) [6]) turn out when B11 was run?
**A.** 0.24 nM

B12: VZ-950 target (dsDNA)
DNA 1: GAAGAGGACC
DNA 2: GGTCCTCTTC
**Q.** How did the Kd (VZ-950) turn out when B12 was run?
**A.** 0.18 nM

B13: VOP 29A-3 target (dsDNA)
DNA 1: GAGGCTTGG
DNA 2: CCAAGCCTC
**Q.** With B13 as the binder, how does the Kd (VOP 29A-3) read?
**A.** < 0.02 nM

B14: VZ-475 target (dsDNA)
DNA 1: GTGTGGGGTT
DNA 2: AACCCCACAC
**Q.** With B14 as the binder, how does the Kd (VG 8A (VZ-475)) read?
**A.** 0.35 nM

B15: VOP 35A-10 target (dsDNA)
DNA 1: GCTGGAGCA
DNA 2: TGCTCCAGC
**Q.** B15 was tested. Which Kd (VOP 35A-10 (VZ+892) [7]) did it give?
**A.** < 0.02 nM

B16: mVZ+509 target (dsDNA)
DNA 1: GCTGGGGGCG
DNA 2: CGCCCCCAGC
**Q.** For B16, which Kd [8] is on record?
**A.** < 0.01 nM

B17: VEGF 1B target (dsDNA)
DNA 1: GGGGAGGAT
DNA 2: ATCCTCCCC
**Q.** Which Kd (VEGF 1B) does the source give for B17 here?
**A.** 2 nM

B18: VZ-573 target (dsDNA)
DNA 1: GGGGGCGCTC
DNA 2: GAGCGCCCCC
**Q.** B18 was tested. Which Kd (ZEN-7A 1 (VZ-573)) did it give?
**A.** 0.63 nM

B19: VZ+434 / mVZ+426 target (dsDNA)
DNA 1: GGGGGTGACC
DNA 2: GGTCACCCCC
**Q.** Which Kd [9] does the source give for B19 here?
**A.** < 0.01 nM

**Q.** What about the Kd [10] of the same binder?
**A.** < 0.02 nM

B20: HUM 19A target (dsDNA)
DNA 1: TGGGCAGAC
DNA 2: GTCTGCCCA
**Q.** B20 was tested. Which Kd (HUM 19A) did it give?
**A.** 0.02 nM
